According to patent publication US20220332824A1 (published 2022):

Key:
CD47 = CD47 (UniProt Q08722 19-323); assay: FACS
human PD-1 = human PD-1 (human, UniProt Q15116 25-288); assay: FACS binding, CHO-K1 cells expressing human PD-1
human PD-1, sequence (Q15116 25-288): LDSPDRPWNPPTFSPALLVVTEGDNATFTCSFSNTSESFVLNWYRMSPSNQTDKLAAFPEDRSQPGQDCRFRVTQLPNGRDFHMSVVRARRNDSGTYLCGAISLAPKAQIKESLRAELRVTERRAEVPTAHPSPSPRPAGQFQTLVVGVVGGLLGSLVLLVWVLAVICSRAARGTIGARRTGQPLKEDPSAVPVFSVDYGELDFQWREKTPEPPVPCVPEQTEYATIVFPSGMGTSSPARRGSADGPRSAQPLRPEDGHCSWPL

CD47, sequence (Q08722 19-323): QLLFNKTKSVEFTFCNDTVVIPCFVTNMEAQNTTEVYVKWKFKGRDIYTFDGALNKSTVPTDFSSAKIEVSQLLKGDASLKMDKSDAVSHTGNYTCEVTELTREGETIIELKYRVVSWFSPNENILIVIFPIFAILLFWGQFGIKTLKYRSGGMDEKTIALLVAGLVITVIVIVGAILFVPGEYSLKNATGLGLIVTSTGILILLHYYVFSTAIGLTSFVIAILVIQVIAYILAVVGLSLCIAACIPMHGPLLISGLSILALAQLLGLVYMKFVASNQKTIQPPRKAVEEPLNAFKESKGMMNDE

| Binder | EC50 (CD47) [nM] | EC50 (human PD-1) [nM] |
| --- | --- | --- |
| bispecific antibody PD1a-G15-HC (bispecific antibody) heavy: not shown light: EIVLTQSPATLSLSPGERATLSCRASENVGTYISWYQQKPGQAPRLLIYGASNRYTGIPARFSGSGSGTDFTLTISSLEPEDFAVYYCGESYGHLYTFGGGTKVEIKRTVAAPSVFIFPPSDEQLKSGTASVVCLLNNFYPREAKVQWKVDNALQSGNSQESVTEQDSKDSTYSLSSTLTLSKADYEKHKVYACEVTHQGLSSPVTKSFNRGEC | 0.968 | 4.75 |
| bispecific antibody PD1a-E-HN (bispecific antibody) heavy: not shown light: EIVLTQSPATLSLSPGERATLSCRASENVGTYISWYQQKPGQAPRLLIYGASNRYTGIPARFSGSGSGTDFTLTISSLEPEDFAVYYCGESYGHLYTFGGGTKVEIKRTVAAPSVFIFPPSDEQLKSGTASVVCLLNNFYPREAKVQWKVDNALQSGNSQESVTEQDSKDSTYSLSSTLTLSKADYEKHKVYACEVTHQGLSSPVTKSFNRGEC | 1.41 | 4.15 |
| anti-CD47 monoclonal antibody (heavy chain H0 and light chain L0) (antibody, V domains shown) VH: EVQLVQSGAEVKKPGSSVKVSCKASGYSFTHHWIHWVRQAPGQGLEWMGMIDASDSETRLSQKFKDRVTITADKSTSTAYMELSSLRSEDTAVYYCARLGRYYFDYWGQGTTVTVSS VL: EIVLTQSPATLSLSPGERATLSCRASENVGTYISWYQQKPGQAPRLLIYGASNRYTGIPARFSGSGSGTDFTLTISSLEPEDFAVYYCGESYGHLYTFGGGTKVEIKR | 1.46 | ~4.44 |
| bispecific antibody PD1a-E-LC (bispecific antibody) heavy: not shown light: EIVLTQSPATLSLSPGERATLSCRASENVGTYISWYQQKPGQAPRLLIYGASNRYTGIPARFSGSGSGTDFTLTISSLEPEDFAVYYCGESYGHLYTFGGGTKVEIKRTVAAPSVFIFPPSDEQLKSGTASVVCLLNNFYPREAKVQWKVDNALQSGNSQESVTEQDSKDSTYSLSSTLTLSKADYEKHKVYACEVTHQGLSSPVTKSFNRGECEPKSSDKTHTSPPSPEVQLVESGGGLVQPGGSLRLSCAVSGNIYNRNFMGWFRQAPGKGREGVSAIYTGTSRTYYADSVKGRFTISRDNAKNTVYLQMNSLRPEDTAVYYCAADLRDGFWDTGVWNTWGQGTLVTVSS | – | 7.74 |

Now those with a lower EC50 (human PD-1), led by results:

| EC50 (CD47) [nM] | EC50 (human PD-1) [nM] | Binder |
| --- | --- | --- |
| – | 3.69 | bispecific antibody PD1a-E-LN (bispecific antibody) heavy: not shown light: EVQLVESGGGLVQPGGSLRLSCAVSGNIYNRNFMGWFRQAPGKGREGVSAIYTGTSRTYYADSVKGRFTISRDNAKNTVYLQMNSLRPEDTAVYYCAADLRDGFWDTGVWNTWGQGTLVTVSSEPKSSDKTHTSPPSPEIVLTQSPATLSLSPGERATLSCRASENVGTYISWYQQKPGQAPRLLIYGASNRYTGIPARFSGSGSGTDFTLTISSLEPEDFAVYYCGESYGHLYTFGGGTKVEIKRTVAAPSVFIFPPSDEQLKSGTASVVCLLNNFYPREAKVQWKVDNALQSGNSQESVTEQDSKDSTYSLSSTLTLSKADYEKHKVYACEVTHQGLSSPVTKSFNRGEC |
| 0.804 | 3.25 | bispecific antibody PD1b-E-HC (bispecific antibody) heavy: not shown light: EIVLTQSPATLSLSPGERATLSCRASENVGTYISWYQQKPGQAPRLLIYGASNRYTGIPARFSGSGSGTDFTLTISSLEPEDFAVYYCGESYGHLYTFGGGTKVEIKRTVAAPSVFIFPPSDEQLKSGTASVVCLLNNFYPREAKVQWKVDNALQSGNSQESVTEQDSKDSTYSLSSTLTLSKADYEKHKVYACEVTHQGLSSPVTKSFNRGEC |
| – | 3.02 | bispecific antibody PD1b-E-LN (bispecific antibody) heavy: not shown light: EVQLVESGGGLVQPGGSLRLSCAVSGNIYNRNFMGWFRQAPGKGLEGVSAIYTGTSRTYYADSVKGRFTISRDNSKNTVYLQMNSLRAEDTAVYYCAADLREGFWDTGVWNTWGQGTLVTVSSEPKSSDKTHTSPPSPEIVLTQSPATLSLSPGERATLSCRASENVGTYISWYQQKPGQAPRLLIYGASNRYTGIPARFSGSGSGTDFTLTISSLEPEDFAVYYCGESYGHLYTFGGGTKVEIKRTVAAPSVFIFPPSDEQLKSGTASVVCLLNNFYPREAKVQWKVDNALQSGNSQESVTEQDSKDSTYSLSSTLTLSKADYEKHKVYACEVTHQGLSSPVTKSFNRGEC |
| 1.78 | 2.82 | bispecific antibody PD1b-E-HN (bispecific antibody) heavy: not shown light: EIVLTQSPATLSLSPGERATLSCRASENVGTYISWYQQKPGQAPRLLIYGASNRYTGIPARFSGSGSGTDFTLTISSLEPEDFAVYYCGESYGHLYTFGGGTKVEIKRTVAAPSVFIFPPSDEQLKSGTASVVCLLNNFYPREAKVQWKVDNALQSGNSQESVTEQDSKDSTYSLSSTLTLSKADYEKHKVYACEVTHQGLSSPVTKSFNRGEC |
| 1.09 | 2.6 | bispecific antibody PD1a-E-HC (bispecific antibody) heavy: not shown light: EIVLTQSPATLSLSPGERATLSCRASENVGTYISWYQQKPGQAPRLLIYGASNRYTGIPARFSGSGSGTDFTLTISSLEPEDFAVYYCGESYGHLYTFGGGTKVEIKRTVAAPSVFIFPPSDEQLKSGTASVVCLLNNFYPREAKVQWKVDNALQSGNSQESVTEQDSKDSTYSLSSTLTLSKADYEKHKVYACEVTHQGLSSPVTKSFNRGEC |
| – | 2.34 | bispecific antibody PD1b-E-LC (bispecific antibody) heavy: not shown light: EIVLTQSPATLSLSPGERATLSCRASENVGTYISWYQQKPGQAPRLLIYGASNRYTGIPARFSGSGSGTDFTLTISSLEPEDFAVYYCGESYGHLYTFGGGTKVEIKRTVAAPSVFIFPPSDEQLKSGTASVVCLLNNFYPREAKVQWKVDNALQSGNSQESVTEQDSKDSTYSLSSTLTLSKADYEKHKVYACEVTHQGLSSPVTKSFNRGECEPKSSDKTHTSPPSPEVQLVESGGGLVQPGGSLRLSCAVSGNIYNRNFMGWFRQAPGKGLEGVSAIYTGTSRTYYADSVKGRFTISRDNSKNTVYLQMNSLRAEDTAVYYCAADLREGFWDTGVWNTWGQGTLVTVSS |
